These results are taken from patent US20050181997A1.

In the experiment the target is Flt3 3T3 cells (mFlt3/fms 3T3 cells and/or Stk 3T3 cells). In words: cell-based or functional assay.

Take “Pv-FRIL (FRIL family member from Phaseolus vulgaris, red kidney bean)”: the Specific Activity (u/mg) in the Flt3 3T3 assay, Superdex 75 step is 244000 u/mg.
